Source: patent US20210246204A1 (Alector, published 2021)
Substitutions are numbered along the chain they refer to.

B1: S7AB-H8.1 (antibody, V domains shown)
VH: QVQLVQSGAEVKKPGASVKVSCKASGYAFTETWMNWVRQAPGQGLEWIGRIFPGLGHTNYAQKFQGRATLTEDTSTSTAYMELSSLRSEDTAVYYCARDYSDYYFDYWGQGTLVTVSS
VL: DIQMTQSPSSLSASVGDRVTITCRGSQDINTYLNWYQQKPGKAPKLLIYYTSRLHSGVPSRFSGSGSGTDYTLTISSLQPEDFATYYCQQGNLLPWTFGQGTKLEIK
B2: S7AB-H8.2 (antibody, V domains shown)
VH: B1 VH with E31M, T32A, L55Y
VL: B1 VL
B3: S7AB-H8.5 (antibody, V domains shown)
VH: B1 VH with T32A, L55Y
VL: B1 VL
B4: S7AB-H8.3 (antibody, V domains shown)
VH: B1 VH with E31G, T32Y
VL: B1 VL
B5: S7AB-H8.8 (antibody, V domains shown)
VH: B1 VH with E31G, T32Y
VL: B1 VL with L93T, L94K
B6: S7AB-H8.7 (antibody, V domains shown)
VH: B1 VH with E31M, T32A, L55Y
VL: B1 VL with L93T, L94K
B7: S7AB-H8.6 (antibody, V domains shown)
VH: B1 VH
VL: B1 VL with L93T, L94K
B8: S7AB-H8.4 (antibody, V domains shown)
VH: B1 VH with E31A, T32A
VL: B1 VL
B9: S7AB chimeric antibody (antibody, V domains shown)
VH: QVHLQQSGPELVKPGASVKISCKASGYAFTNCWMNWVRQRPGKGLDWIGRIFPGNGHTNYSGKFKDKATLTEDKSSSTAYMQLSSLTSEDSAVYFCARDYSDYYFDYWGQGTTLTVSS
VL: DVQMTQTTSSLSASLGDRVTISCRASQDINTYLNWYQQKPDGTVKLLIYYTSRLHSGVPSRFSGSGSGTDYSLTISNLEQEDIATYFCQQGNTLPWTFGGGTKLEIK
B10: S7AB-H8.30.1 (antibody, V domains shown)
VH: B1 VH with T32A, G44R, L55Y
VL: B1 VL with G25A, I29A
B11: S7AB-H8.34.2 (antibody, V domains shown)
VH: B1 VH with E31A, T32A, P41R, G44R
VL: B1 VL with N92G, L93T
B12: S7AB-H8.45.2 (antibody, V domains shown)
VH: B1 VH with T32A, P41R, G44R, L55Y
VL: B1 VL with L93I
B13: S7AB-H8.34.1 (antibody, V domains shown)
VH: B1 VH with E31A, T32A, G44R
VL: B1 VL with N92G, L93T
B14: S7AB-H8.35.1 (antibody, V domains shown)
VH: B1 VH with T32A, G44R, L55Y
VL: B1 VL with N92G, L93T
B15: S7AB-H8.44.2 (antibody, V domains shown)
VH: B1 VH with E31A, T32A, P41R, G44R
VL: B1 VL with L93I
B16: S7AB-H8.30.2 (antibody, V domains shown)
VH: B1 VH with T32A, P41R, G44R, L55Y
VL: B1 VL with G25A, I29A
B17: S7AB-H8.35.2 (antibody, V domains shown)
VH: B1 VH with T32A, P41R, G44R, L55Y
VL: B1 VL with N92G, L93T
B18: S7AB-H8.44.1 (antibody, V domains shown)
VH: B1 VH with E31A, T32A, G44R
VL: B1 VL with L93I
B19: S7AB-H8.45.1 (antibody, V domains shown)
VH: B1 VH with T32A, G44R, L55Y
VL: B1 VL with L93I

These binders were tested against T1, histidine-tagged human Siglec-7 (NovoProtein) (human, UniProt Q9Y286 19-353) (assay: BLI, antibody captured).
T1 construct: Bought protein; also called recombinant human Siglec-7; recombinant Siglec-7; not shown: histidine tag
Protocol: In this assay, the humanized antibodies were compared directly to S7AB. Briefly, the antibodies were captured on anti-human or anti-mouse IgG Fc Biosensors (Pall ForteBio). Varying concentrations (0-100 nM) of histidine-tagged human Siglec-7 (NovoProtein) were then bound to the captured anti-Siglec-7 surface (200 s association time, 900 s dissociation time). Multi-concentration kinetic analysis was performed using a 1:1 interaction model to extract association and dissociation rate constants (kₐ and kd, respectively) for each antibody. Apparent affinity constants (KD) were calculated from the ratio kd/kₐ.
The affinities of S7AB-H8 and variants S7AB-H8.1 through S7AB-H8.45 for human Siglec-7 were measured by BioLayer Interferometry according to the method described in Example 1 above.

T1 sequence (Q9Y286 19-353 limits assumed): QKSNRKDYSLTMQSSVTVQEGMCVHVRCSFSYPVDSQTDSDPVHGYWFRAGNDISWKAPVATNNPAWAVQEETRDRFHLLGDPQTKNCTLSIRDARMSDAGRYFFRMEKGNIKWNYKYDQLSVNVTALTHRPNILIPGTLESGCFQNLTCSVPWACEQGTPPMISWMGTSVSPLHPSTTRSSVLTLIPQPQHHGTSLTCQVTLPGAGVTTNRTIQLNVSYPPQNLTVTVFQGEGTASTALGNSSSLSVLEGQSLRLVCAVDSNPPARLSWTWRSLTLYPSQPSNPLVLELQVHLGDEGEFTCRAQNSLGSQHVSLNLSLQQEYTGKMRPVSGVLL

First: B1
Second: B2
The Kd of the first is 2.5-fold higher: 0.574 nM for the first, 0.227 nM for the second.

B3 and B4 are within 1.5-fold of each other in Kd: 0.351 nM for the first, 0.294 nM for the second.

Going from B5 to B6, the Kd rises from 0.371 nM to 0.62 nM (1.7-fold). The first binds more tightly here.

Compared with B7, B8 is 10-fold lower in Kd: 2.24 nM for the first, 0.214 nM for the second. The second binds more tightly here.

First: B1
Second: B2
The “fold improvement over S7AB-H8” value of the first is lower: 1.8 fold for the first, 4.6 fold for the second.

Compared with B3, B4 is higher in “fold improvement over S7AB-H8” value: 3 fold for the first, 3.6 fold for the second.

First: B5
Second: B6
The “fold improvement over S7AB-H8” value of the first is higher: 2.8 fold for the first, 1.7 fold for the second.

Compared with B7, B8 is higher in “fold improvement over S7AB-H8” value: 0.5 fold for the first, 4.9 fold for the second.

Compared with B1, B2 is 2.2-fold lower in koff: 7.05e-05 s⁻¹ for the first, 3.23e-05 s⁻¹ for the second.

B3 and B4 are within 1.5-fold of each other in koff: 4.08e-05 s⁻¹ for the first, 6.05e-05 s⁻¹ for the second.

First: B5
Second: B6
The koff of the first is 1.5-fold higher: 6.33e-05 s⁻¹ for the first, 4.19e-05 s⁻¹ for the second.

Compared with B7, B8 is 1.8-fold lower in koff: 5.71e-05 s⁻¹ for the first, 3.15e-05 s⁻¹ for the second.

B1 and B2 are within 1.5-fold of each other in kon: 123000 M⁻¹ s⁻¹ for the first, 142000 M⁻¹ s⁻¹ for the second.

Compared with B3, B4 is 1.8-fold higher in kon: 116000 M⁻¹ s⁻¹ for the first, 206000 M⁻¹ s⁻¹ for the second.

Going from B5 to B6, the kon falls from 171000 M⁻¹ s⁻¹ to 67600 M⁻¹ s⁻¹ (2.5-fold).

First: B7
Second: B8
The kon of the first is 5.8-fold lower: 25500 M⁻¹ s⁻¹ for the first, 147000 M⁻¹ s⁻¹ for the second.

The binders below were run against human Siglec-7 on primary human monocyte-derived dendritic cells (human, UniProt Q9Y286 19-467) (assay: cell-based or functional assay).
Sequence of human Siglec-7 on primary human monocyte-derived dendritic cells (Q9Y286 19-467): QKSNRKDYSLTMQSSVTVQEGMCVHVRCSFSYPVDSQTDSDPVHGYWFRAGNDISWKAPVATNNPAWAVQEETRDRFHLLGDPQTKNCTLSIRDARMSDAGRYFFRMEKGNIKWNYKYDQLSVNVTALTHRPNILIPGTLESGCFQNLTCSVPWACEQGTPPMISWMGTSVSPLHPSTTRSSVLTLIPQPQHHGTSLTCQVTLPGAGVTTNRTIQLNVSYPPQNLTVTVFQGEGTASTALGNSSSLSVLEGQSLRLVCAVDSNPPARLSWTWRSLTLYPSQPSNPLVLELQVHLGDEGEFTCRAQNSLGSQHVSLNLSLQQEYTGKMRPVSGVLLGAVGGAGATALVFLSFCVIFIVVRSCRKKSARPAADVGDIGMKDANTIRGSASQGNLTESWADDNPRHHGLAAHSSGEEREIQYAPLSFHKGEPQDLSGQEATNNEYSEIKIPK

Going from B9 to B1, the “Maximal downregulation (% Siglec-7 remaining)” value falls from 28.6% to 10.9%.

Going from B10 to B11, the “Maximal downregulation (% Siglec-7 remaining)” value falls from 11.3% to 5.4%.

Going from B12 to B13, the “Maximal downregulation (% Siglec-7 remaining)” value falls from 8.7% to 4.4%.

Compared with B14, B15 is lower in “Maximal downregulation (% Siglec-7 remaining)” value: 10.5% for the first, 3.3% for the second.

Compared with B16, B17 is higher in “Maximal downregulation (% Siglec-7 remaining)” value: 10.1% for the first, 10.8% for the second.

Going from B18 to B19, the “Maximal downregulation (% Siglec-7 remaining)” value rises from 4.1% to 7.8%.

Going from B2 to B3, the “Maximal downregulation (% Siglec-7 remaining)” value rises from 3.3% to 9.5%.

Going from B4 to B5, the “Maximal downregulation (% Siglec-7 remaining)” value falls from 20.1% to 19.2%.

First: B6
Second: B7
The “Maximal downregulation (% Siglec-7 remaining)” value of the first is lower: 2.1% for the first, 7.2% for the second.

For B8, the “Maximal downregulation (% Siglec-7 remaining)” value was 4.5%.

Compared with B9, B1 is lower in “Receptor downregulation, (EC50) (pM)” value: 1024 pM for the first, 117 pM for the second.

Going from B10 to B11, the “Receptor downregulation, (EC50) (pM)” value falls from 134 pM to 110 pM.

First: B12
Second: B13
The “Receptor downregulation, (EC50) (pM)” value of the first is higher: 109 pM for the first, 99.5 pM for the second.

First: B14
Second: B15
The “Receptor downregulation, (EC50) (pM)” value of the first is higher: 184 pM for the first, 76.7 pM for the second.

First: B16
Second: B17
The “Receptor downregulation, (EC50) (pM)” value of the first is lower: 115 pM for the first, 205 pM for the second.

Going from B18 to B19, the “Receptor downregulation, (EC50) (pM)” value rises from 73.9 pM to 97 pM.

B2 and B3 are the same in “Receptor downregulation, (EC50) (pM)” value: 87 pM for the first, 87 pM for the second.

Going from B4 to B5, the “Receptor downregulation, (EC50) (pM)” value rises from 89.2 pM to 89.8 pM.

Compared with B6, B7 is higher in “Receptor downregulation, (EC50) (pM)” value: 84.7 pM for the first, 154 pM for the second.

For B8, the “Receptor downregulation, (EC50) (pM)” value was 79.5 pM.

First: B1
Second: B10
The “Fold increase in potency compared to AB-H8” value (from here on “Fold increase … to AB-H8”) of the first is higher: 2.9 fold for the first, 2.7 fold for the second.

B11 and B12 are the same in “Fold increase … to AB-H8” value: 3.3 fold for the first, 3.3 fold for the second.

Going from B13 to B14, the “Fold increase … to AB-H8” value falls from 3.6 fold to 2 fold.

Going from B15 to B16, the “Fold increase … to AB-H8” value falls from 4.7 fold to 3.2 fold.

Compared with B17, B18 is higher in “Fold increase … to AB-H8” value: 1.8 fold for the first, 4.9 fold for the second.

First: B19
Second: B2
The “Fold increase … to AB-H8” value of the first is lower: 3.7 fold for the first, 3.9 fold for the second.

First: B3
Second: B4
The “Fold increase … to AB-H8” value of the first is higher: 3.9 fold for the first, 3.8 fold for the second.

Compared with B5, B6 is higher in “Fold increase … to AB-H8” value: 3.8 fold for the first, 4 fold for the second.

First: B7
Second: B8
The “Fold increase … to AB-H8” value of the first is lower: 2.2 fold for the first, 4.3 fold for the second.

Compared with B1, B10 is lower in “Fold increase in potency compared to Chimeric Ab” value (shortened to “Fold increase … to Chimeric Ab”): 8.7 fold for the first, 8.1 fold for the second.

B11 and B12 are the same in “Fold increase … to Chimeric Ab” value: 9.9 fold for the first, 9.9 fold for the second.

Compared with B13, B14 is lower in “Fold increase … to Chimeric Ab” value: 10.9 fold for the first, 5.9 fold for the second.

Going from B15 to B16, the “Fold increase … to Chimeric Ab” value falls from 14.1 fold to 9.4 fold.

Going from B17 to B18, the “Fold increase … to Chimeric Ab” value rises from 5.3 fold to 14.7 fold.

Compared with B19, B2 is higher in “Fold increase … to Chimeric Ab” value: 11.2 fold for the first, 11.8 fold for the second.

Compared with B3, B4 is lower in “Fold increase … to Chimeric Ab” value: 11.8 fold for the first, 11.5 fold for the second.

First: B5
Second: B6
The “Fold increase … to Chimeric Ab” value of the first is lower: 11.4 fold for the first, 12.1 fold for the second.

First: B7
Second: B8
The “Fold increase … to Chimeric Ab” value of the first is lower: 6.6 fold for the first, 12.9 fold for the second.
